Paper doi:10.1101/2021.01.13.426364 (bioRxiv, 2021)

Experiments:
[1] = target: T1, Variant Surface Glycoprotein VSG2 on living VSG2-expressing bloodstream form trypanosomes (Trypanosoma brucei, UniProt P26332); assay: flow cytometry on cells
[2] = target: T2, Variant Surface Glycoprotein VSG2, soluble purified form (Trypanosoma brucei, UniProt P26332); assay: crystal structure
[3] = target: T1, Variant Surface Glycoprotein VSG2 on …; assay: Western blot of washed cells after incubation with nanobody
crystal structure = target: the molecule itself; assay: crystal structure
[4] = target: T2, Variant Surface Glycoprotein VSG2, …; assay: SEC

B1: NB14_(VSG2) sortagged with FAM (VHH)
VHH: QVQLQESGGGLVQAGGSLRLSCEASGLTFSNYAMAWFRQAPEKEREFVAGISWTGSRTYYADSVRGRFTTSRDGHKNTVYLQMNDLKPEDTAVYLCAADLLGSGKDGTSVYEYWGQGTQVTVSS
B1: binds [1].

B2: NB14_(VSG2) (VHH)
VHH: QVQLQESGGGLVQAGGSLRLSCEASGLTFSNYAMAWFRQAPEKEREFVAGISWTGSRTYYADSVRGRFTTSRDGHKNTVYLQMNDLKPEDTAVYLCAADLLGSGKDGTSVYEYWGQGTQVTVSS
B2: binds [2]; binds [3].

B3: Variant Surface Glycoprotein VSG2, soluble purified form (natural protein, Trypanosoma brucei, UniProt P26332 27-459, looked up)
chain: AAEKGFKQAFWQPLCQVSEELDDQPKGALFTLQAAASKIQKMRDAALRASIYAEINHGTNRAKAAVIVANHYAMKADSGLEALKQTLSSQEVTATATASYLKGRIDEYLNLLLQTKESGTSGCMMDTSGTNTVTKAGGTIGGVPCKLQLSPIQPKRPAATYLGKAGYVGLTRQADAANNFHDNDAECRLASGHNTNGLGKSGQLSAAVTMAAGYVTVANSQTAVTVQALDALQEASGAAHQPWIDAWKAKKALTGAETAEFRNETAGIAGKTGVTKLVEEALLKKKDSEASEIQTELKKYFSGHENEQWTAIEKLISEQPVAQNLVGDNQPTKLGELEGNAKLTTILAYYRMETAGKFEVLTQKHKPAESQQQAAETEGSCNKKDQNECKSPCKWHNDAENKKCTLDKEEAKKVADETAKDGKTGNTNTTGSS
B3: binds (crystal structure).

B4: NB9_(VSG2) (VHH)
VHH: QVQLQESGGGLVQAGGSLRLSCTTSGLTFSNYAFSWFRQAPGEEREFVGAISWSGGRTDYADSVKGRFTISRDNAKNTFYLQMNSLKTEDTAVYYCAADLLGEGSRRSEYEYWGQGTQVTVSS
B4: binds [2]; binds [3].

B5: NB9_(VSG2) sortagged with FAM (VHH)
VHH: QVQLQESGGGLVQAGGSLRLSCTTSGLTFSNYAFSWFRQAPGEEREFVGAISWSGGRTDYADSVKGRFTISRDNAKNTFYLQMNSLKTEDTAVYYCAADLLGEGSRRSEYEYWGQGTQVTVSS
B5: binds [1].

B6: NB11_(VSG2) mutant L100A (VHH)
VHH: QVQLQESGGGLVQAGGSLTLSCAVSGLTFSNYAMGWFRQAPGKEREFVAAITWDGGNTYYTDSVKGRFTISRDNAKNTVFLQMNSLKPEDTAVYYCAAKALGSSRYELALAGYDYWGQGTQVTVSS
B6: binds [4].

B7: NB11_(VSG2) triple mutant L100/L101/S103 (VHH)
VHH: QVQLQESGGGLVQAGGSLTLSCAVSGLTFSNYAMGWFRQAPGKEREFVAAITWDGGNTYYTDSVKGRFTISRDNAKNTVFLQMNSLKPEDTAVYYCAAKAAGASRYELALAGYDYWGQGTQVTVSS
B7: no binding [4].

B8: NB11_(VSG2) mutant L101A (VHH)
VHH: QVQLQESGGGLVQAGGSLTLSCAVSGLTFSNYAMGWFRQAPGKEREFVAAITWDGGNTYYTDSVKGRFTISRDNAKNTVFLQMNSLKPEDTAVYYCAAKLAGSSRYELALAGYDYWGQGTQVTVSS
B8: binds [4].

B9: NB11_(VSG2) mutant S103A (VHH)
VHH: QVQLQESGGGLVQAGGSLTLSCAVSGLTFSNYAMGWFRQAPGKEREFVAAITWDGGNTYYTDSVKGRFTISRDNAKNTVFLQMNSLKPEDTAVYYCAAKLLGASRYELALAGYDYWGQGTQVTVSS
B9: binds [4].

B10: NB19_(VSG2) sortagged with FAM (VHH)
VHH: QVQLQESGGGLVQAGGSLRLSCAASERTFSSLGMGWFRQGPGKEREFAAAISWSGVSTYYADSVKGRFTISRDNDKNTVYLQMNSLKPDDTAVYYCAATSSWNDMALKSAGWYEYWGQGTQVTVSS
B10: binds [1].

B11: NB19_(VSG2) mutant E114/Y115A (VHH)
VHH: QVQLQESGGGLVQAGGSLRLSCAASERTFSSLGMGWFRQGPGKEREFAAAISWSGVSTYYADSVKGRFTISRDNDKNTVYLQMNSLKPDDTAVYYCAATSSWNDMALKSAGWYAAWGQGTQVTVSS
B11: no binding [4].

B12: NB19_(VSG2) mutant E114A (VHH)
VHH: QVQLQESGGGLVQAGGSLRLSCAASERTFSSLGMGWFRQGPGKEREFAAAISWSGVSTYYADSVKGRFTISRDNDKNTVYLQMNSLKPDDTAVYYCAATSSWNDMALKSAGWYAYWGQGTQVTVSS
B12: no binding [4].

B13: NB19_(VSG2) mutant Y115A (VHH)
VHH: QVQLQESGGGLVQAGGSLRLSCAASERTFSSLGMGWFRQGPGKEREFAAAISWSGVSTYYADSVKGRFTISRDNDKNTVYLQMNSLKPDDTAVYYCAATSSWNDMALKSAGWYEAWGQGTQVTVSS
B13: no binding [4].

B14: NB19_(VSG2) (VHH)
VHH: QVQLQESGGGLVQAGGSLRLSCAASERTFSSLGMGWFRQGPGKEREFAAAISWSGVSTYYADSVKGRFTISRDNDKNTVYLQMNSLKPDDTAVYYCAATSSWNDMALKSAGWYEYWGQGTQVTVSS
B14: binds [4]; binds [3].
